{"source": "paper PMC11316025", "origin": "cited, not measured here", "molecular_target": "KRAS (Homo sapiens) (UniProt P01116)", "data": [{"substance": "RASSF5 (from UniProt Q8WWW0)", "values": [{"measurement": "Kd", "value": 1.7, "unit": "µM"}]}]}
